Data set [1] addresses G protein βγ subunits.
The target of data set [2] is casein.
In data set [3] the target is histones.
Data set [4] deals with m2 muscarinic cholinergic receptor.
The target in data set [5] is T1, peptide RRRAAAEASAAA
T1 chain: RRRAAAEASAAA

Data set [6] deals with T2, peptide RRRAEASAA
T2 chain: RRRAEASAA

Data set [7] addresses T3, peptide RRRASAAASAA containing a phosphoserine as the first serine.
T3 chain: RRRASAAASAA

In data set [8] the target is T4, peptide RRREEESEEE
T4 chain: RRREEESEEE

In data set [9] the target is T5, peptide RRREEESGGG
T5 chain: RRREEESGGG

Data set [10] concerns the target phosvitin.
In data set [11] the target is polylysine, a 14-16 amino acid peptide.
Data set [12] deals with T6, rhodopsin in urea treated rod outer segments, P02699.
T6 chain: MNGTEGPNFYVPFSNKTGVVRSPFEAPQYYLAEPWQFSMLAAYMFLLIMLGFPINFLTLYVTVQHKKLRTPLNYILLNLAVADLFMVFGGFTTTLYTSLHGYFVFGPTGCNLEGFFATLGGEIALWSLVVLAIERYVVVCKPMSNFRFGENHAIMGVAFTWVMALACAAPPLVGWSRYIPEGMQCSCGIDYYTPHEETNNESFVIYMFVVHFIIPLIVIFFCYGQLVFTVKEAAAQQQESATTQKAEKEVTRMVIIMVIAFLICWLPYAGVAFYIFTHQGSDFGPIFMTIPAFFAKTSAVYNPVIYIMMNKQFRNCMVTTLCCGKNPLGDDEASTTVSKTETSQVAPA

Data set [13] deals with β2-adrenergic receptor.

This is an account of results in patent publication US20020034767.

B1: G protein-coupled receptor kinase GRK6 (human) (protein)
chain: MELENIVANTVLLKAREGGGGNRKGKSKKWRQMLQFPHISQCEELRLSLERDYHSLCERHAIGRLLFREFCATRPELSRCVAFLDGVAEYEVTPDDKRKACGRHVTQNFLSHTGPDLIPEVPRQLVTNCTQRLEQGPCKDLFQELTRLTHEYLSVAPFADYLDSIYFNRFLQWKWLERQPVTKNTFRQYRVLGKGGFGEVCACQVRATGKMYACKKLEKKRIKKRKGEAMALNEKQILEKVNSRFVVSLAYAYETKDALCLVLTLMNGGDLKFHIYHMGQAGFPEARAVFYAAEICCGLEDLHRERIVYRDLKPENILLDDHGHIRISDLGLAVHVPEGQTIKGRVGTVGYMAPEVVKNERYTFSPDWWALGCLLYEMIAGQSPFQQRKKKIKREEVERLVKEVPEEYSERFSPQARSLCSQLLCKDPAERLGCRGGSAREVKEHPLFKKLNFKRLGAGMLEPPFKPDPQAIYCKDVLDIEQFSYVKGVELEPTDQDFYQKFATGSVPIPWQNEMVETECFQELNVFGLDGSVPPDLDWKGQPPAPPKKGLLQRLFSRQDCCGNCSDSEEELPTRL
Consider B1, for which the “kinase activation by G protein βγ subunits” value in data set [1] was “it is not activated by G protein βγ subunits”. In addition, the protein substrate phosphorylation result was “GRK6 was able to phosphorylate the acidic proteins casein and phosvitin” in data set [2]; “it was only weakly reactive toward the basic protein substrate histones” in [3]; “GRK6 was able to phosphorylate the acidic proteins casein and phosvitin” in data set [10]. Besides, the “stimulus dependent receptor phosphorylation” value was “GRK6 is also able to phosphorylate rhodopsin, β2-adrenergic and m2 muscarinic cholinergic receptors in a stimulus dependent manner, albeit to a significantly lower extent than βARK and GRK5” in [4]; “GRK6 is also able to phosphorylate rhodopsin, β2-adrenergic and m2 muscarinic cholinergic receptors in a stimulus dependent manner, albeit to a significantly lower extent than βARK and GRK5” in data set [13]. In addition, the peptide phosphorylation result is given as “but not with the RRRAAAEASAAA (SEQ ID NO: 11) peptide” in [5]; “GRK6 activity was also apparent with the RRRAEASAA (SEQ ID NO: 10) peptide” in [6]; “the same peptide containing a phosphoserine as the first serine is not phosphorylated by GRK6” in [7]; “poorly phosphorylated by GRK6” in [8]; “poorly phosphorylated by GRK6” in data set [9]. Also, the “fold increase in phosphorylation of rhodopsin” value in data set [11] is “an ˜2.7-fold increase in phosphorylation (optimal range 1 to 10 µM)”. Further, the “rhodopsin phosphorylation activity relative to βARK virus infected supernatant” value in data set [12] was 4.7% +/-0.4% that of the βARK virus infected supernatant.
